# Measured values published in publication doi:10.1101/2025.10.30.685657.
# Where two headings read alike, the source gives them in different places.
# Columns and labels:
# Assay in all cases: live-cell long-exposure single-molecule localization microscopy
# [1] = target: T3SS injectisome of Yersinia enterocolitica (Yersinia enterocolitica (endogenous)) (UniProt Q01245)
# [2] = target: T3SS injectisome of Yersinia enterocolitica (Yersinia enterocolitica (endogenous)) (UniProt Q01245); remark: listed apart in the source
# [3] = target: T3SS injectisome of Yersinia enterocolitica (Yersinia enterocolitica (endogenous)) (UniProt Q01245); remark: listed apart in the source
Substance,bound time constant tau (inverse of koff) [1] [s],bound time constant tau (inverse of koff) [2] [s],short bound time constant tau (short component of the bi-exponential fit) [2] [s],weighted average bound time constant (short- and long-lived events) [2] [s],short bound time constant tau (short component of the bi-exponential fit) [3] [s],weighted average bound time constant (short- and long-lived events) [3] [s],long bound time constant tau (long component of the bi-exponential fit) [2] [s]
Halo-tagged SctL (from UniProt Q01253 1-223) (natural protein),3.9,3.4,3.1,4.4,–,–,–
Halo-tagged SctQ (from UniProt Q79NI3 1-307) (natural protein),4.1,2.5,4.5,–,2.1,2.7,23
